Assay results from PMC4317013 (The Journal of Biological Chemistry, 2014).

Experiments:
[1] = biological target: T1, testisin (Mus musculus, UniProt Q9JHJ7); assay: Cleavage by and complex formation with testisin in solution (SDS-PAGE, Western blotting, Edman degradation); type: biochemical; conditions: for N-terminal testisin cleavage site: Edman degradation of testisin-cleaved protein, Fig. 1D
T1 construct: purchased R&D Systems
Procedure: Activation of protestisin and testisin (R&D Systems, Minneapolis, MN) activity assays were performed according to the instructions of the supplier. Inhibition of testisin by PCI was tested on 96-well F16 Black MaxiSorp plates (Nunc, Roskilde, Denmark). 20 nM testisin was incubated with 200 or 1000 nM (final concentration) rhPCI or rmPCI in the absence or presence of 5 units/ml heparin in 100 μl of testisin buffer (50 mM Tris, 150 mM NaCl, 10 mM CaCl2, pH 7.5). After a 30-min incubation at 37 °C, 100 μl of 0.2 mM fluorogenic substrate I-1295 (Bachem, Bubendorf, Switzerland) dissolved in testisin buffer was added to each well. Plates were read every 15 s at an excitation wavelength of 380 nm and an emission wavelength of 460 nm using a Synergy H4 microplate reader (BioTek, Seattle, WA). The 5-min time point was used to calculate the relative activity. The amidolytic activity of testisin in the absence of PCI was assigned to 1, and for each reaction, the remaining testisin activity was calculated. To detect the possible complex formation between PCI and testisin, different concentrations (7.5–960 nM) of rhPCI or rmPCI, respectively, were incubated with 30 nM testisin for varying times (0–40 min) at 37 °C. The reactions were stopped by adding an equal volume of 2× Laemmli buffer containing 5% 2-mercaptoethanol ([40]). Samples were heated at 99 °C for 5 min followed by sodium dodecyl sulfate-polyacrylamide electrophoresis (SDS-PAGE) and Western blotting. To determine the testisin cleavage sites in human and mouse PCI, WT PCI or PCI mutants (rhPCI, hPCI-R11G, hPCI-R354G, rmPCI, mPCI-A18G, or mPCI-R352G, respectively; 300 nM each) were incubated with 30 nM testisin for 1 h at 37 °C. […]
SDS-PAGE was performed according to the method of Laemmli ([40]) using 10% acrylamide gels. […] The signal was detected using SuperSignal West Femto or SuperSignal West Pico chemiluminescent substrate (Thermo Fisher Scientific, Rockford, IL) with a FluorChem HD2 imaging system (ProteinSimple, Santa Clara, CA). […]

[2] = tested on: testisin; assay: 30 nM testisin in testisin buffer (50 mM Tris, 150 mM NaCl, 10 mM CaCl2, pH 7.5); conditions: 37 °C, up to 120 min
[3] = tested on: Jurkat T cells
Procedure: For the internalization experiment, cells were seeded at 1 × 10^6 cells/ml with 8 ml of full medium into 75-cm^2 flasks and treated with respective 200 nM proteins for 2 h or 5 μM peptides for 1 h.
Human A+-helix peptide ([…]; corresponding to the cleaved N-terminal peptide of hPCI), mouse A+-helix peptide ([…]; corresponding to the cleaved N-terminal peptide of mPCI), and TAT peptide ([…]) ([42]) were synthesized and labeled with FITC (GenScript, Piscataway, NJ). […] Fluorescence-activated cell sorting (FACS) analysis was performed with a FACSCalibur flow cytometer (BD Biosciences). Further data analysis was done with Flowing Software ([43]). For confocal microscopy, the fixed cells were suspended with Vectashield mounting medium containing […] DAPI (Vector Laboratories, Burlingame, CA) and transferred onto slides. Confocal images were taken by a Zeiss LSM-510 Meta confocal microscope system (Zeiss, Jena, Germany). Zeiss LSM Image Browser software was applied for further analysis of images.

[4] = tested on: Jurkat T cells; assay: Internalization of PCI forms by Jurkat T cells (cell lysis, subcellular fractionation, Western blotting); type: cell-based, human; conditions: 200 nM protein, 2 h, 37 °C, Western blotting with anti-mPCI IgG; for internalization by Jurkat T cells (whole cell lysate and subcellular fractions): full medium, Fig. 3
Procedure: SDS-PAGE was performed according to the method of Laemmli ([40]) using 10% acrylamide gels. Following electrophoresis, the proteins were transferred onto PVDF membranes. The membranes were blocked with blotting buffer (5% skim milk powder and 0.05% Tween 20 in PBS, pH 7.4) for 1 h at room temperature. Rabbit anti-mPCI IgG (diluted 1:1000; homemade), rabbit anti-hPCI IgG (diluted 1:1000; homemade), monoclonal mouse anti-penta-His IgG (diluted 1:500; Qiagen, Hilden, Germany), rabbit anti-testisin IgG (diluted 1:500; Abgent, San Diego, CA), mouse monoclonal anti-A1AT(diluted 1:2000; Fisher Scientific GmbH), rabbit anti-actin IgG (diluted 1:2000; Sigma-Aldrich), monoclonal mouse anti-lamin B2 IgG (diluted 1:2000; Abcam, Cambridge, UK), and monoclonal mouse anti-Hsp 90 IgG (diluted 1:2000; Exbio, Prague, Czech) were used, respectively, in blotting buffer. The respective secondary antibodies were horseradish peroxidase-conjugated donkey anti-rabbit IgG (diluted 1:5000; GE Healthcare Handels GmbH) and horseradish peroxidase-conjugated sheep anti-mouse IgG (diluted 1:5000; GE Healthcare Handels GmbH). The signal was detected using SuperSignal West Femto or SuperSignal West Pico chemiluminescent substrate (Thermo Fisher Scientific, Rockford, IL) with a FluorChem HD2 imaging system (ProteinSimple, Santa Clara, CA).
Jurkat T cells were incubated in full medium with 200 nM rmPCI, testisin-cleaved rmPCI, or ΔR1-A18 mPCI, respectively, at 37 °C for 2 h. 1 × 10^7 cells were harvested and washed three times with PBS. To prepare whole cell lysates, cell pellets were resuspended and incubated in CelLytic M cell lysis buffer at room temperature for 10 min and applied to electrophoresis. Subcellular fractions were prepared as described previously ([41]) with some modifications. In brief, cell pellets were resuspended in 125 μl of buffer A (10 mM Hepes, pH 7.9, 10 mM KCl, 1.5 mM MgCl2, 0.34 M sucrose, 10% glycerol, 1 mM DTT, 0.1% Triton X-100) containing 10 μl of protease inhibitor mixture P8340 (Sigma-Aldrich) and incubated for 8 min. […]

[5] = biological target: enteropeptidase (Homo sapiens, UniProt P98073); assay: Interaction of PCI with other proteases: enteropeptidase; type: biochemical; conditions: 300 nM rmPCI, 30 nM protease, 37 °C, Fig. 1F
Procedure: (§1) Urokinase, aPC, thrombin, or enteropeptidase (30 nM each) was incubated with 300 nM rmPCI, respectively, for different periods (10 or 120 min) at 37 °C. The reactions were stopped by adding an equal volume of 2× Laemmli buffer containing 5% 2-mercaptoethanol ([40]). Samples were heated at 99 °C for 5 min followed by SDS-PAGE and Western blotting.
(§2) SDS-PAGE was performed according to the method of Laemmli ([40]) using 10% acrylamide gels. Following electrophoresis, the proteins were transferred onto PVDF membranes. The membranes were blocked with blotting buffer (5% skim milk powder and 0.05% Tween 20 in PBS, pH 7.4) for 1 h at room temperature. […] The signal was detected using SuperSignal West Femto or SuperSignal West Pico chemiluminescent substrate (Thermo Fisher Scientific, Rockford, IL) with a FluorChem HD2 imaging system (ProteinSimple, Santa Clara, CA).

[6] = biological target: aPC (Homo sapiens, UniProt P04070); assay: Interaction of PCI with other proteases: aPC; type: biochemical; conditions: 300 nM rmPCI, 30 nM protease, 37 °C, Fig. 1F
Procedure: as §1, §2

[7] = biological target: Urokinase (Homo sapiens, UniProt P00749); assay: Interaction of PCI with other proteases: urokinase; type: biochemical; conditions: 300 nM rmPCI, 30 nM protease, 37 °C, Fig. 1F
Procedure: as §1, §2

T1 sequence (Q9JHJ7 55-298 limits assumed): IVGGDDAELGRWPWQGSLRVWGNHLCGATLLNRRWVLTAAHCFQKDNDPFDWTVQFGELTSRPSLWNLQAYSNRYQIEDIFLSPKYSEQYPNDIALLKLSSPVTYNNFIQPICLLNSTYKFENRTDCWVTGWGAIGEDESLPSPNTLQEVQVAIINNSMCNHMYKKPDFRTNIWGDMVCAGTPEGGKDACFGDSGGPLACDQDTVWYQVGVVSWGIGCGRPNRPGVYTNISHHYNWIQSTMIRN
Chain of aPC (P04070 212-461 limits assumed): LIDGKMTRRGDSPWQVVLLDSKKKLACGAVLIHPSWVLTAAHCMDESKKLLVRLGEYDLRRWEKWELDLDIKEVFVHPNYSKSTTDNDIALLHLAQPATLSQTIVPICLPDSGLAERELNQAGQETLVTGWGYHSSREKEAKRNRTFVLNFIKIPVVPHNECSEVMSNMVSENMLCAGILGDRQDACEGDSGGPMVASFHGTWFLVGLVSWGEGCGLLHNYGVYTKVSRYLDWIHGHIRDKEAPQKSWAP
Chain of aPC (P04070 43-197 partner limits assumed): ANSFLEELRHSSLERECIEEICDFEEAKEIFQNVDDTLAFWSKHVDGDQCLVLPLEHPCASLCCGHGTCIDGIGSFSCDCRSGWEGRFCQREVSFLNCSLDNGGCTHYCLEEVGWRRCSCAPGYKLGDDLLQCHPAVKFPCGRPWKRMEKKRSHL
Chain of enteropeptidase (P98073 whole entry, species assumed): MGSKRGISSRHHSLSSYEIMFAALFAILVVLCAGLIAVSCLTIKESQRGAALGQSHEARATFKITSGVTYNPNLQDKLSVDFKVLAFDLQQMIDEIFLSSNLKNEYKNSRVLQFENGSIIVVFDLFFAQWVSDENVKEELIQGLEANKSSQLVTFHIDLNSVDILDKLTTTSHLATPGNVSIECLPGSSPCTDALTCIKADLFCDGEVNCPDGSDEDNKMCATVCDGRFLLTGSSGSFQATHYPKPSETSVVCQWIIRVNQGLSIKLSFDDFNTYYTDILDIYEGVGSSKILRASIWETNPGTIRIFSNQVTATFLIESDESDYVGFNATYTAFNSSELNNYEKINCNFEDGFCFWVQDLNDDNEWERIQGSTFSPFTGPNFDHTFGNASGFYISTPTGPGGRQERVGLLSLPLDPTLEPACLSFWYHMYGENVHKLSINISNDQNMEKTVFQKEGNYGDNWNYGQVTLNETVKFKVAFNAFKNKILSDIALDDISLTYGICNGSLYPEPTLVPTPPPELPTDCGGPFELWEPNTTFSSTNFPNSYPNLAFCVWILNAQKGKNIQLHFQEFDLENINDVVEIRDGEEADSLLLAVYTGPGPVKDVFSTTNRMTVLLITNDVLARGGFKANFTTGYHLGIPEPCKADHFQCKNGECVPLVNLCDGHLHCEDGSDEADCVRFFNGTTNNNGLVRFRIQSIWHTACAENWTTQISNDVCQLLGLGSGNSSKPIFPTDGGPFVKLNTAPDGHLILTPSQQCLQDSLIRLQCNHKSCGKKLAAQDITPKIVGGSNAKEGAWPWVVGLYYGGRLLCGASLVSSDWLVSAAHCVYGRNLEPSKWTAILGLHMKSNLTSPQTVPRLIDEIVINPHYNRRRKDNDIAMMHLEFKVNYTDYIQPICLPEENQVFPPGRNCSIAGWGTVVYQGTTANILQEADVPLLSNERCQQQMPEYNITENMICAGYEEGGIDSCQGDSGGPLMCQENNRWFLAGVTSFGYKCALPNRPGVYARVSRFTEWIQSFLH

## A1AT: serum-derived human α1-antitrypsin (Sigma-Aldrich), another serpin [reference compound]
[1]; 300 nM protein, 30 nM testisin, 0–40 min, 37 °C, testisin buffer, Fig. 1A, B
  cleavage by testisin (Western blotting): Neither cleavage

## HRHHPREMKKRVEDLHVGATV...
[2]
  cleaved bond: Arg11-Val12

## RRHSHSKKKKAKESSVGA [mouse A+-helix-FITC]
[3]
  intracellular localization (confocal microscopy): cytosolic and nuclear localization

## HRHHPREMKKR [human A+-helix-FITC]
[3]
  intracellular localization (confocal microscopy): cytosolic and nuclear localization

B1: rhPCI: recombinant human protein C inhibitor with N-terminal His tag (protein, UniProt P05154 26-406, looked up)
Plasma serine protease …: EMKKRVEDLHVGATVAPSSRRDFTFDLYRALASAAPSQSIFFSPVSISMSLAMLSLGAGSSTKMQILEGLGLNLQKSSEKELHRGFQQLLQELNQPRDGFQLSLGNALFTDLVVDLQDTFVSAMKTLYLADTFPTNFRDSAGAMKQINDYVAKQTKGKIVDLLKNLDSNAVVIMVNYIFFKAKWETSFNHKGTQEQDFYVTSETVVRVPMMSREDQYHYLLDRNLSCRVVGVPYQGNATALFILPSEGKMQQVENGLSEKTLRKWLKMFKKRQLELYLPKFSIEGSYQLEKVLPSLGISNVFTSHADLSGISNHSNIQVSEMVHKAVVEVDESGTRAAAATGTIFTFRSARLNSQRLVFNRPFLMFIVDNNILFLGKVNRP
modifications: N-terminal His tag
[1]
  N-terminal testisin cleavage site: between Arg^11 and Val^12

B2: rmPCI: recombinant mouse protein C inhibitor with N-terminal His tag (protein, UniProt P70458 25-405, looked up)
Plasma serine protease …: SKKKKAKESSVGAVGPPSSKDFAFRLYRALVSESPGQNVFFSPLSVSMSLGMLSLGAGLKTKTQILDGLGLSLQQGQEDKLHKGFQQLLQRFRQPSDGLQLSLGSALFKDPAVHIRDDFLSAMKTLYMSDTFSTNFGNPEIAKKQINNYVAKQTKGKIVDFIKDLDSTHVMIVVNYIFFKAKWQTAFSETNTHKMDFHVTPKRTTQVPMMNREDGYSYYLDQNISCTVVGIPYQGNAIALFILPSEGKMKQVEDGLDERTLRNWLKMFTKRRLDLYLPKFSIEATYKLENVLPKLGIQDVFTTHADLSGITDHTNIKLSEMVHKSMMEVEESGTTAAAITGAIFTFRSARPSSLKIEFTRPFLLTLMEDSHILFVGKVTRP
modifications: N-terminal His tag
[4]
  internalization by Jurkat T cells (whole cell lysate and subcellular fractions): taken up by Jurkat T cells and translocated to the nucleus
[4]; Fig. 4D
  detection in subcellular fractions of Jurkat T cells: detected in the nuclear envelope fraction
[5]; 10 or 120 min, anti-mPCI IgG
  cleavage by enteropeptidase: appearance of a cleaved PCI form
[5]; 120 min, anti-penta-His IgG
  N-terminal cleavage by enteropeptidase: do not cleave the N terminus
[1]
  N-terminal testisin cleavage site: between Ala^18 and Val^19
[6]; 10 or 120 min, anti-mPCI IgG
  cleavage by aPC: appearance of a cleaved PCI form
[6]; 120 min, anti-penta-His IgG, N-terminally cleaved form in aPC-PCI complex not completely ruled out
  N-terminal cleavage by aPC: do not cleave the N terminus
[7]; 10 or 120 min, anti-mPCI IgG
  cleavage by urokinase: appearance of a cleaved PCI form
[7]; 120 min, anti-penta-His IgG
  N-terminal cleavage by urokinase: do not cleave the N terminus

B3: rmPCI preincubated with U937 cells: rmPCI preincubated with testisin-expressing U937 cells (protein, UniProt P70458 25-405, looked up)
Plasma serine protease …: SKKKKAKESSVGAVGPPSSKDFAFRLYRALVSESPGQNVFFSPLSVSMSLGMLSLGAGLKTKTQILDGLGLSLQQGQEDKLHKGFQQLLQRFRQPSDGLQLSLGSALFKDPAVHIRDDFLSAMKTLYMSDTFSTNFGNPEIAKKQINNYVAKQTKGKIVDFIKDLDSTHVMIVVNYIFFKAKWQTAFSETNTHKMDFHVTPKRTTQVPMMNREDGYSYYLDQNISCTVVGIPYQGNAIALFILPSEGKMKQVEDGLDERTLRNWLKMFTKRRLDLYLPKFSIEATYKLENVLPKLGIQDVFTTHADLSGITDHTNIKLSEMVHKSMMEVEESGTTAAAITGAIFTFRSARPSSLKIEFTRPFLLTLMEDSHILFVGKVTRP
modifications: preincubated with U937 cells
[4]
  internalization by Jurkat T cells (whole cell lysate and subcellular fractions): not detected inside Jurkat T cells
